The values below come from US20160237147A1.

Assay [1] addresses recombinant human NGF 1-120 (human) (UniProt P01138). In words: cell-based or functional assay.
Assay [2] has as its target recombinant rat beta-NGF (R&D Systems) (rat) (UniProt P25427). In words: cell-based or functional assay.

Chain of recombinant human NGF 1-120 (human) (P01138 other isoform, or with tags, fused parts or gaps): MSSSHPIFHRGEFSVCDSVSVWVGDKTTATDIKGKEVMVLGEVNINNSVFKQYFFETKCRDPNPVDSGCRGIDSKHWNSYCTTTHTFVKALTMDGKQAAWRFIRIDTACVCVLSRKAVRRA
Chain of recombinant rat beta-NGF (R&D Systems) (rat) (P25427 122-241 limits assumed): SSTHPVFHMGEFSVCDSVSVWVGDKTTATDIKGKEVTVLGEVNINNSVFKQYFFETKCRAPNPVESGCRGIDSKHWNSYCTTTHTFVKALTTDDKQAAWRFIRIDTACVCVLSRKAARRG

B1: anti-NGF antibody 14D10 (antibody, V domains shown)
VH: EVQLVESGGGLVQPGRSLRLSCTASGFTFEDYAMHWVRQAPGKGLEWVSGISWNRGIIGYADSVKGRFTVSRDNAKNSLYLQMNSLRAEDTALYYCAKEGYYGSGRPGYFYYVMDVWGQGTTVTVSS
VL: EIVLTQSPGTLSLSPGERATLSCRASQSVSSGFLAWFQQKPGQAPRLLIYGASSRATAIPDRFSGSGSGTDFTLTISRLEPEDFAVYYCQQYGSSPYTFGQGTKLEIK
Consider B1, for which, in assay [1], the IC50 @ hNGF, NGF neutralization activity as in Example 3 was found to be 0.392 nM. The IC50 @ rNGF, NGF neutralization activity as in Example 3 in assay [2] is above 13 nM.

B2: anti-NGF antibody 14D11 (antibody, V domains shown)
VH: EVQLVQSGAEVKKPGESLKISCKGSGYNFTTYWIGWVRQMPGKGLEWMGIIYPGDSDTKYSPSFQGQVTISADKSISTAYLQWSSLKASDTAMYYCARNYYGSGTYYYYYGMNVWGQGTTVTVSS
VL: DIQMTQSPSSVSASVGDRVTITCRASQGISIWLAWYQHKPGKAPKLLIYAASSLQSGVPSRFSGSGSGTDFTLTISSLQPEDFATYYCQQANSFPWTFGQGTKVEIK
With B2, the IC50 @ hNGF, NGF neutralization activity as in Example 3 in assay [1] worked out at 0.28 nM. Moreover, the IC50 @ rNGF, NGF neutralization activity as in Example 3 in assay [2] was above 20 nM.
